38 sequences from the Immune Epitope Database (IEDB) can be followed below.

By Kd is commonly meant the equilibrium constant for the complex coming apart.

What all share (test): IEDB peptide-MHC binding, purified MHC/competitive/radioactivity; filed as Kd, often an IC50 or EC50 that approximates it; ≥ and ≤ were set here for values at or beyond the usual limits of such assays
Assay [1] addresses HLA-A*68:01.
Assay [2] addresses HLA-A*31:01.
Assay [3] addresses HLA-A*11:01.
The target in assay [4] is HLA-A*03:01.
The target in assay [5] is HLA-A*33:01.
[6] abbreviates: source organism: Vaccinia virus WR.
Setting [7] is: source organism: SARS coronavirus Tor2.
Where [8] appears, read: source organism: Mammarenavirus whitewaterense.
[9] abbreviates: source organism: Triticum aestivum.
Where [10] appears, read: source organism: Dengue virus 4 Philippines/H241/1956.
[11] abbreviates: source organism: Dengue virus 3 Martinique/1243/1999.
Setting [12] is: source organism: Mammarenavirus juninense.
[13] abbreviates: source organism: Dengue virus 3 Sri Lanka/1266/2000.
Setting [14] is: source organism: Dengue virus 2 Peru/IQT2913/1996.
The mark [15] stands for this setting: source organism: Dengue virus 2 Jamaica/1409/1983.
The mark [16] stands for this setting: source organism: Mammarenavirus brazilense.
[17] abbreviates: source organism: Dengue virus 1 Brazil/97-11/1997.
[18] abbreviates: source organism: Lassa virus Josiah.

For the sequence LTPIFSDLLK, the Kd in assay [1] (setting [6]) was determined as 17.2 nM; in assay [2] (setting [6]), 4120 nM; in assay [3] (setting [6]) it was 2.37 nM; in assay [4] (setting [6]), 24.1 nM; in assay [5] (setting [6]), 3900 nM.

As for VLHDIGNPK, the Kd stood at 6520 nM in assay [1] (setting [7]); 1960 nM in assay [2] (setting [7]); 34.3 nM in assay [3] (setting [7]); 21.5 nM in assay [4] (setting [7]); 7770 nM in assay [5] (setting [7]).

On to PMPCMINDTH, for which the dissociation constant (Kd) in assay [1] (setting [8]) was no less than 70100 nM; in assay [2] (setting [8]), no less than 70000 nM; in assay [3] (setting [8]), no less than 69700 nM; in assay [4] (setting [8]), no less than 70000 nM; in assay [5] (setting [8]), no less than 70000 nM.

Turning to LLMHLVSLYK, the dissociation constant Kd worked out at 17.5 nM in assay [1] (setting [6]); 85.1 nM in assay [2] (setting [6]); 0.379 nM in assay [3] (setting [6]); 1.22 nM in assay [4] (setting [6]); 15800 nM in assay [5] (setting [6]).

Take NSVANRSKQK: the Kd is 568 nM in assay [1] (setting [6]); 17000 nM in assay [2] (setting [6]); 525 nM in assay [3] (setting [6]); 322 nM in assay [4] (setting [6]); no less than 70000 nM in assay [5] (setting [6]).

Take YLGVNNLPY: the dissociation constant (Kd) in assay [1] (setting [6]) is no less than 52700 nM; in assay [2] (setting [6]), no less than 77900 nM; in assay [3] (setting [6]), 1490 nM; in assay [4] (setting [6]) it was 1300 nM; in assay [5] (setting [6]) it was no less than 77700 nM.

As to QQQQQQQQQK, the dissociation constant (Kd) in assay [1] (setting [9]) is no less than 46700 nM; in assay [2] (setting [9]), no less than 23200 nM; in assay [3] (setting [9]) it was 4840 nM; in assay [4] (setting [9]), 11200 nM; in assay [5] (setting [9]), no less than 70000 nM.

In the case of AMSFDGFIR, the Kd amounted to 898 nM in assay [1] (setting [6]); 71.8 nM in assay [2] (setting [6]); 327 nM in assay [3] (setting [6]); 9600 nM in assay [4] (setting [6]); 3150 nM in assay [5] (setting [6]).

In the case of RMLNILNGR, the equilibrium dissociation constant (Kd) in assay [2] (setting [10]) amounted to 1.16 nM.

MVSRLLLNR: the Kd was 13 nM in assay [1] (setting [11]), 4.81 nM in assay [2] (setting [11]), 49.9 nM in assay [3] (setting [11]) and 8.31 nM in assay [5] (setting [11]).

Turning to EKYGHLCKYH, the Kd in assay [1] (setting [12]) was no less than 70100 nM; in assay [2] (setting [12]), no less than 70000 nM; in assay [3] (setting [12]), no less than 69700 nM; in assay [4] (setting [12]), no less than 70000 nM; in assay [5] (setting [12]), no less than 70000 nM.

As to LLSCIRNASK, the Kd in assay [1] (setting [6]) came to 195 nM; in assay [2] (setting [6]), 822 nM; in assay [3] (setting [6]), 29.3 nM; in assay [4] (setting [6]), 66.2 nM; in assay [5] (setting [6]), 16700 nM.

With TIFTLTVAWR, the Kd in assay [1] (setting [13]) amounted to 87.3 nM; in assay [2] (setting [13]) it was 395 nM; in assay [5] (setting [13]) it was 391 nM.

In the case of YVPSAEDNY, the dissociation constant Kd is no less than 36100 nM in assay [1] (setting [6]); no less than 77900 nM in assay [2] (setting [6]); no less than 77900 nM in assay [3] (setting [6]); no less than 78000 nM in assay [4] (setting [6]); no less than 77700 nM in assay [5] (setting [6]).

Regarding WFSQRGGSYK, the dissociation constant Kd came to 142 nM in assay [1] (setting [7]); 178 nM in assay [2] (setting [7]); 152 nM in assay [3] (setting [7]); 190 nM in assay [4] (setting [7]); 114 nM in assay [5] (setting [7]).

Turning to FTDPSSVAAR, the Kd in assay [1] (setting [10]) came to 67.7 nM.

Take IFLFLMSGR: the Kd in assay [2] (setting [14]) came to 59.9 nM; in assay [5] (setting [14]) it was 10 nM.

Turning to FNMLKRERNR, the Kd in assay [5] (setting [15]) was 53.7 nM.

Take DFTLFIKTGH: the Kd in assay [1] (setting [16]) was 2480 nM; in assay [2] (setting [16]), 4540 nM; in assay [3] (setting [16]), no less than 58700 nM; in assay [5] (setting [16]) it was 131 nM.

As to LFLEEMLRTR, the results for the Kd in assay [2] (setting [15]) and in assay [5] (setting [15]) were 732 nM and 685 nM, respectively.

LFMALVAFLR: the Kd in assay [1] (setting [15]) worked out at 192 nM; in assay [2] (setting [15]), 95.5 nM; in assay [5] (setting [15]), 93.2 nM.

Consider DSVCACGLFK, for which the dissociation constant (Kd) in assay [3] (setting [8]) amounted to 133 nM.

YLALIATFK: the Kd in assay [1] (setting [11]) was 31.8 nM; in assay [4] (setting [11]) it was 4.7 nM.

For the sequence LLALNDMGK, in assay [4] (setting [11]), the Kd was 294 nM.

Consider TSEVHWNYK, for which the Kd in assay [3] (setting [10]) was determined as 84.9 nM.

Regarding DFKEFASGR, in assay [5] (setting [10]), the Kd is 2.23 nM.

For FLALGFFLR, the dissociation constant (Kd) in assay [1] (setting [11]) was 2.14 nM; in assay [2] (setting [11]), 43 nM; in assay [5] (setting [11]), 26.5 nM.

Take ILARWSSFKK: in assay [4] (setting [17]), the dissociation constant (Kd) stood at 1.39 nM.

In the case of AMLFLISGK, the dissociation constant Kd in assay [3] (setting [11]) worked out at 211 nM; in assay [4] (setting [11]), 185 nM.

As to ITANPVVTK, the Kd in assay [1] (setting [11]) was determined as 47.9 nM; in assay [3] (setting [11]), 22.3 nM; in assay [4] (setting [11]), 18.1 nM.

With RVSTPQGLVK, the Kd was 54.2 nM in assay [3] (setting [10]) and 5.93 nM in assay [4] (setting [10]).

With SIFAGHLKCR, the Kd in assay [5] (setting [11]) was found to be 116 nM.

Regarding FCKSCWFENK, the Kd in assay [2] (setting [18]) was 2430 nM; in assay [4] (setting [18]) it was no less than 20000 nM; in assay [5] (setting [18]) it was 9190 nM.

EYRLKGESR: in assay [5] (setting [11]), the Kd was 18.6 nM.

MIEEVMRSR: the Kd in assay [5] (setting [17]) is 90.8 nM.

With NYLDYMTSMK, the Kd in assay [5] (setting [17]) turned out to be 173 nM.

As to VIDPRRCLK, the dissociation constant Kd in assay [3] (setting [17]) was found to be 1500 nM; in assay [4] (setting [17]), 49.3 nM.

In the case of LISYGGGWK, in assay [4] (setting [15]), the Kd stood at 338 nM.
